Data from the Immune Epitope Database (IEDB).

Columns and labels:
HLA-A*01:01 = assay: IEDB peptide-MHC binding, purified MHC/direct/fluorescence; filed as Kd, often an IC50 or EC50 that approximates it; ≥ and ≤ were set here for values at or beyond the usual limits of such assays
HLA-A*02:01 = assay: as above; details: source organism: Mycobacterium tuberculosis
HLA-A*11:01 = assay: as above
HLA-A*31:01 = assay: as above
HLA-B*07:02 = assay: as above; details: source organism: Mycobacterium tuberculosis
HLA-B*15:01 = assay: as above
HLA-B*15:17 = assay: as above
HLA-B*18:01 [1] = assay: as above
HLA-B*27:05 = assay: as above
HLA-B*40:01 = assay: as above
HLA-B*46:01 = assay: as above
HLA-B*48:01 = assay: as above
HLA-B*57:01 = assay: as above
HLA-B*58:01 = assay: as above
HLA-A*26:02 = assay: IEDB peptide-MHC binding, purified MHC/competitive/fluorescence; filed as Kd, often an IC50 or EC50 that approximates it; ≥ and ≤ were set here for values at or beyond the usual limits of such assays; details: source organism: Mycobacterium tuberculosis variant bovis BCG str. Pasteur 1173P2
HLA-A*26:03 = assay: as above; details: source organism: Mycobacterium tuberculosis variant bovis BCG str. Pasteur 1173P2
HLA-A*68:02 = assay: as above; details: source organism: Mycobacterium tuberculosis variant bovis BCG str. Pasteur 1173P2
HLA-A*69:01 [2] = assay: as above; details: source organism: Mycobacterium tuberculosis variant bovis BCG str. Pasteur 1173P2
HLA-A*03:01 = assay: IEDB peptide-MHC binding, purified MHC/direct/fluorescence; filed as Kd, often an IC50 or EC50 that approximates it; ≥ and ≤ were set here for values at or beyond the usual limits of such assays; details: source organism: Influenza A virus (A/whooper swan/Mongolia/6/05(H5N1))
HLA-A*26:01 = assay: as above; details: source organism: Influenza A virus(A/swine/Shandong/fZC/2003(H9N2))
HLA-A*69:01 [3] = assay: as above; details: source organism: Influenza A virus (A/whooper swan/Mongolia/6/05(H5N1))
HLA-A*80:01 = assay: as above; details: source organism: Influenza A virus (A/whooper swan/Mongolia/6/05(H5N1))
HLA-C*05:01 = assay: as above; details: source organism: Influenza A virus (A/Fort Monmouth/1/1947-mouse adapted(H1N1))
HLA-A*02:03 = assay: IEDB peptide-MHC binding, purified MHC/competitive/fluorescence; filed as Kd, often an IC50 or EC50 that approximates it; ≥ and ≤ were set here for values at or beyond the usual limits of such assays; details: source organism: Influenza A virus (A/Fort Monmouth/1/1947-mouse adapted(H1N1))
HLA-B*53:01 = assay: IEDB peptide-MHC binding, purified MHC/competitive/fluorescence; ≥ and ≤ were set here for values at or beyond the usual limits of such assays; details: source organism: human gammaherpesvirus 4
HLA-B*18:01 [4] = assay: IEDB peptide-MHC binding, purified MHC/competitive/fluorescence; filed as Kd, often an IC50 or EC50 that approximates it; ≥ and ≤ were set here for values at or beyond the usual limits of such assays; details: source organism: Human herpesvirus 4 strain B95-8
[5] = source organism: Mycobacterium tuberculosis
[6] = source organism: Influenza A virus (A/whooper swan/Mongolia/6/05(H5N1))

In the case of QVFKGVVIR, the Kd (HLA-A*01:01; [5]) is reported as at least 20 µM, the Kd (HLA-A*02:01) is reported as at least 20 µM and the Kd (HLA-A*11:01; [5]) is reported as 0.694 µM. For the same sequence, the Kd (HLA-A*31:01; [5]) was 0.101 µM, the Kd (HLA-B*07:02) was at least 20 µM and the Kd (HLA-B*15:01; [5]) was at least 20 µM. It also gave a Kd (HLA-B*15:17; [5]) of at least 20 µM, a Kd (HLA-B*18:01 [1]; [5]) of at least 20 µM and a Kd (HLA-B*27:05; [5]) of at least 20 µM. The Kd (HLA-B*40:01; [5]) was at least 20 µM, the Kd (HLA-B*46:01; [5]) was at least 20 µM and the Kd (HLA-B*48:01; [5]) was at least 20 µM. The Kd (HLA-B*57:01; [5]) was at least 20 µM, the Kd (HLA-B*58:01; source organism: Mycobacterium tuberculosis str. Haarlem) was at least 20 µM and the Kd (HLA-A*26:02) was at least 20 µM. It also gave a Kd (HLA-A*26:03) of at least 20 µM, a Kd (HLA-A*68:02) of 1.77 µM and a Kd (HLA-A*69:01 [2]) of at least 20 µM.

SSDDFALIV gave a Kd (HLA-A*01:01; [6]) of 0.113 µM, a Kd (HLA-A*03:01) of at least 20 µM and a Kd (HLA-A*11:01; [6]) of at least 20 µM. For the same sequence, the Kd (HLA-A*26:01) was at least 20 µM, the Kd (HLA-A*31:01; [6]) was at least 20 µM and the Kd (HLA-A*69:01 [3]) was 0.0188 µM. It also gave a Kd (HLA-A*80:01) of 0.224 µM, a Kd (HLA-B*15:01; [6]) of at least 20 µM and a Kd (HLA-B*15:17; [6]) of 0.229 µM. It also gave a Kd (HLA-B*18:01 [1]; [6]) of at least 20 µM, a Kd (HLA-B*27:05; [6]) of at least 20 µM and a Kd (HLA-B*40:01; [6]) of at least 20 µM. It also gave a Kd (HLA-B*46:01; [6]) of at least 20 µM, a Kd (HLA-B*48:01; [6]) of at least 20 µM and a Kd (HLA-B*57:01; [6]) of at least 20 µM. It also gave a Kd (HLA-B*58:01; [6]) of at least 20 µM, a Kd (HLA-C*05:01) of 0.016 µM and a Kd (HLA-A*02:03) of at least 20 µM.

Work on LASAMRMLW yielded an IC50 (HLA-B*53:01) of 0.0783 µM and a Kd (HLA-B*18:01 [4]) of 2.27 µM.
